The values below come from US20120028912.

The data set addresses T1, HIV-1 Tat protein, wild type.
T1 chain: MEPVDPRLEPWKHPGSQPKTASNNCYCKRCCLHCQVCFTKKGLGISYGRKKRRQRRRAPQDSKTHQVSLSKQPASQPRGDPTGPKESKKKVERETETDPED

B1: p300/CBP-associated factor (P/CAF), HA-tagged (protein)
chain: MSEAGGAGPGGCGAGAGAGAGPGALPPQPAALPPAPPQGSPCAAAAGGSGACGPATAVAAAGTAEGPGGGGSARIAVKKAQLRSAPRAKKLEKLGVYSACKAEESCKCNGWKNPNPSPTPPRADLQQIIVSLTESCRSCSHALAAHVSHLENVSEEEMNRLLGIVLDVEYLFTCVHKEEDADTKQVYFYLFKLLRKSILQRGKPVVEGSLEKKPPFEKPSIEQGVNNFVQYKFSHLPAKERQTIVELAKMFLNRINYWHLEAPSQRRLRSPNDDISGYKENYTRWLCYCNVPQFCDSLPRYETTQVFGRTLLRSVFTVMRRQLLEQARQEKDKLPLEKRTLILTHFPKFLSMLEEEVYSQNSPIWDQDFLSASSRTSQLGIQTVINPPPVAGTISYNSTSSSLEQPNAGSSSPACKASSGLEANPGEKRKMTDSHVLEEAKKPRVMGDIPMELINEVMSTITDPAAMLGPETNFLSAHSARDEAARLEERRGVIEFHVVGNSLNQKPNKKILMWLVGLQNVFSHQLPRMPKEYITRLVFDPKHKTLALIKDGRVIGGICFRMFPSQGFTEIVFCAVTSNEQVKGYGTHLMNHLKEYHIKHDILNFLTYADEYAIGYFKKQGFSKEIKIPKTKYVGYIKDYEGATLMGCELNPRIPYTEFSVIIKKQKEIIKKLIERKQAQIRKVYPGLSCFKDGVRQIPIESIPGIRETGWKPSGKEKSKEPRDPDQLYSTLKSILQQVKSHQSAWPFMEPVKRTEAPGYYEVIRFPMDLKTMSERLKNRYYVSKKLFMADLQRVFTNCKEYNAAESEYYKCANILEKFFFSKIKEAGLIDK
As to B1, the “Superinduction of Tat transactivation activity” value is “as much as a 30-fold increase upon P/CAF stimulation”.
